# Experimental data as given in publication PMC9317960 (Biochemical Journal, 2022).
# T1: Human Scribble (SCRIB) PDZ3 domain (1002-1094) (human, UniProt Q14160 1002-1094)
# T1 sequence (looked up): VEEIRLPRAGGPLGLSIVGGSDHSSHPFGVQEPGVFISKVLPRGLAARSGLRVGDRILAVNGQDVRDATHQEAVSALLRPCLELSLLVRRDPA
# What was measured:
# [1] = tested on: a wide range of different PDZ domains; conditions: cited from earlier work
# [2] = target: T1, Human Scribble (SCRIB) PDZ3 domain …; test: ITC; conditions: both partners purified
Molecule,"affinity towards PDZ domains, in words [1]",Kd [2],dH [2],stoichiometry N [2]
"RSWFETWV [Superpeptide, used as a positive control]",affinity towards a wide range of different PDZ domains,–,–,–
LRLESSII [TBEV NS5_CTN peptide (C-terminal PBM of NS5)],–,18.4 µM,-1.1 kcal/mol,1
